# Laboratory results: patent US20090226421A1 (Genmab, published 2009)
# B1: 7D8-HG (antibody)
# heavy: EVQLVESGGGLVQPDRSLRLSCAASGFTFHDYAMHWVRQAPGKGLEWVSTISWNSGTIGYADSVKGRFTISRDNAKNSLYLQMNSLRAEDTALYYCAKDIQYGNYYYGMDVWGQGTTVTVSSASTKGPSVFPLAPCSRSTSESTAALGCLVKDYFPEPVTVSWNSGALTSGVHTFPAVLQSSGLYSLSSVVTVPSSSLGTKTYTCNVDHKPSNTKVDKRVAPEFLGGPSVFLFPPKPKDTLMISRTPEVTCVVVDVSQEDPEVQFNWYVDGVEVHNAKTKPREEQFNSTYRVVSVLTVLHQDWLNGKEYKCKVSNKGLPSSIEKTISKAKGQPREPQVYTLPPSQEEMTKNQVSLTCLVKGFYPSDIAVEWESNGQPENNYKTTPPVLDSDGSFFLYSRLTVDKSRWQEGNVFSCSVMHEALHNHYTQKSLSLSLGK
# light: not shown
# notes: Half-molecule of one heavy and one light chain (SDS-PAGE, MS 71520 Da); also called HuMab 7D8-HG; hingeless IgG4 anti-CD20
# Molecular target: T1, human C1q (human, UniProt P02745 23-245; P02746 28-253; P02747 29-245)
# T1 construct: also called first component of the classical complement cascade
# Assay: ELISA, antibody coated, C1q detected with rabbit anti-human C1q
# Description: In short, microtiter ELISA plates (Greiner, Germany) were coated overnight at RT with the test antibodies serially diluted from 10 μg/ml to 0.06 μg/ml in PBS. Plates were emptied and wells were blocked with 200 μl ELISA-diluent per well (0.1 M NaPO₄, 0.1 M NaCl, 0.1% gelatin and 0.05% Tween-20), at RT for 30 minutes. […] After washing the plates (3×) with PBST, wells were incubated with HRP-conjugated swine anti-rabbit IgG-Fc (DAKO, P0300, lot #069) diluted in ELISA diluent (1:2500, 100 μl/well, RT, 1 hour). Thereafter, plates were washed thrice and assays were developed with freshly prepared 1 mg/ml ABTS solution (ABTS: 2,2′-azino-bis[3-ethylbenzthiazoline-6-sulfonic acid]); 2 tablets of 5 mg in 10 ml ABTS buffer, Boehringer Mannheim, Ingelheim, Germany) at RT in the dark for 30 minutes. Absorbance was measured at 405 nm in an ELISA plate reader (Biotek Instruments Inc., Winooski, USA).
# T1 sequence (P02745 23-245, chain 1 of 3): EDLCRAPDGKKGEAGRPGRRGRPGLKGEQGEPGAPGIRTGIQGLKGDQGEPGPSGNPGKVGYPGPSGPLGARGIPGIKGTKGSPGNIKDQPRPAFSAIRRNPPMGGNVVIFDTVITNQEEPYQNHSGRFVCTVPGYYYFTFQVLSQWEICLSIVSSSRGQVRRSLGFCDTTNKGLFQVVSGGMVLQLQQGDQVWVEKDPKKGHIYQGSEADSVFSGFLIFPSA
# T1 sequence (P02746 28-253, chain 2 of 3): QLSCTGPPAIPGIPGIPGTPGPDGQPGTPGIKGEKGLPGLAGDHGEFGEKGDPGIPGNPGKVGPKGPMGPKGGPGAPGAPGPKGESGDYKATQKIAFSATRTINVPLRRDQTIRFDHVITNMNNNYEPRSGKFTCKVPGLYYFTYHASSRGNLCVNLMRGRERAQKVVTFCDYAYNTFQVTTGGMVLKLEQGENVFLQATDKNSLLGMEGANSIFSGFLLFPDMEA
# T1 sequence (P02747 29-245, chain 3 of 3): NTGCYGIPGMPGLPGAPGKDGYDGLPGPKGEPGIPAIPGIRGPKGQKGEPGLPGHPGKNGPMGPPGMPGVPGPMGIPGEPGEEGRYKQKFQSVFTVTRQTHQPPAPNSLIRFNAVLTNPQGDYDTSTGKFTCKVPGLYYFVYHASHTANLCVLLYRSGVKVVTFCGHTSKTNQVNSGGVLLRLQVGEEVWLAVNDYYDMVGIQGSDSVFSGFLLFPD
binder,measurement,value
B1,binding result,no binding
